Assay results reported in patent publication US20120014998A1.

Target: GroEL (E. coli Cpn60) (E. coli) (UniProt P0A6F5)
Assay: cell-based or functional assay

Sequence of GroEL (E. coli Cpn60) (E. coli) (P0A6F5 2-548 limits assumed): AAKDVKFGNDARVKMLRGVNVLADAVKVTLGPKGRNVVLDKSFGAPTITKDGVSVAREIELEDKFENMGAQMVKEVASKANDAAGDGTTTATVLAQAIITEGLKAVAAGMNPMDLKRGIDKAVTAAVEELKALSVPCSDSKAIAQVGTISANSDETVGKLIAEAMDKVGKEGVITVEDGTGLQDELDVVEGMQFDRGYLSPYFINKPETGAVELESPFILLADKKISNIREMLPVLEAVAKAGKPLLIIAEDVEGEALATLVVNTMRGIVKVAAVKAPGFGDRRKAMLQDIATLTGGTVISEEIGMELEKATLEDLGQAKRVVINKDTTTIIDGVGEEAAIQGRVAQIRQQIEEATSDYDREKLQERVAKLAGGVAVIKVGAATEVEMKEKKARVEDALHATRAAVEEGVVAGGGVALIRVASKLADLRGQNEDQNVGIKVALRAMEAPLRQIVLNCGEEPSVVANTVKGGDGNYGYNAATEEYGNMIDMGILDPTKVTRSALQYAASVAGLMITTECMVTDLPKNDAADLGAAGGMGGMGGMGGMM

B1: E. coli Cpn10 (GroES) (protein)
chain: MNIRPLHDRVIVKRKEVETKSAGGIVLTGSAAAKSTRGEVLAVGNGRILENGEVKPLDVKVGDIVIFNDGYGVKSEKIDNEEVLIMSESDILAIVEA
Refolding activity (% of Ala-Cpn10) (% of Ala-Cpn10): 109
